Reference: patent US20200109196A1 (MOGAM INSTITUTE FOR BIOMEDICAL RESEARCH, published 2020)
Substitutions are numbered along the chain they refer to.

T1: recombinant human CEACAM-6/CD66c protein (R&D systems; Cat. No. 3934-CM) (human, UniProt P40199 35-320)
T1 construct: Bought protein; also called HCCM6
T1 sequence (looked up): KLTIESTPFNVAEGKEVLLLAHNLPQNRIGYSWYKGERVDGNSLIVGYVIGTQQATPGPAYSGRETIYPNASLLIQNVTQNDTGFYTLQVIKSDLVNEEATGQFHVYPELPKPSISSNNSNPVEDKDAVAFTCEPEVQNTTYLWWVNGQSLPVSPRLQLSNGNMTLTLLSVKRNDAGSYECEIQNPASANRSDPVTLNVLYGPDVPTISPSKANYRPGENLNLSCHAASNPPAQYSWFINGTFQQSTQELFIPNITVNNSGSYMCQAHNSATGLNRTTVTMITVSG

T2: mCCM1
T2 construct: also called mouse CCM1; mouse CEACAM1/CD66a protein (Sino Biological); not shown: the vendor's polyhistidine tag
T2 chain: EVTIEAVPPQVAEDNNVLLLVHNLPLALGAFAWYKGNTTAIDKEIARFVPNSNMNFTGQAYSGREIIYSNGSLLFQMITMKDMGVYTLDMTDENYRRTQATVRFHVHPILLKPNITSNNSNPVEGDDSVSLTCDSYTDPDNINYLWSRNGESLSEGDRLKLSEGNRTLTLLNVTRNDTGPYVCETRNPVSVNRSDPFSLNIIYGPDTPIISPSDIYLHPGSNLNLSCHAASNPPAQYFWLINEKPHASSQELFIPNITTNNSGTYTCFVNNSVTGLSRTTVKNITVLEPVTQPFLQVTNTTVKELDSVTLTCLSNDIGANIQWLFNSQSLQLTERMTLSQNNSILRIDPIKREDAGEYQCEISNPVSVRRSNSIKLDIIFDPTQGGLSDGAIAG

B1: C18 (antibody, human IgG4 S228P, lambda, V domains shown)
VH: EVQLLESGGGLVQPGGSLRLSCAASGFTFSNYDMSWVRQAPGKGLEWVSGISHSSGSKYYADSVKGRFTISRDNSKNTLYLQMNSLRAEDTAVYYCARDPLPCLIPKCSYYYAMDVWGQGTLVTVSS
VL: QSVLTQPPSAPGTPGQRVTISCSGSSSNIGSNAVTWYQQLPGTAPKLLIYADSHRPSGVPDRFSGSKSGTSASLAISGLRSEDEADYYCGSWDDSLNAYVFGGGTKLTVLG
B2: C26 (antibody, human IgG4 S228P, lambda, V domains shown)
VH: EVQLLESGGGLVQPGGSLRLSCAASGFTFSGYDMSWVRQAPGKGLEWVSWISYGGGSIYYADSVKGRFTISRDNSKNTLYLQMNSLRAEDTAVYYCAKDRLPQKAVRHSYANGMDVWGQGTLVTVSS
VL: B1 VL with P11S, S31N, A33Y, S91A, D94Y, N97S, A98G
B3: C22 (antibody, human IgG4 S228P, lambda, V domains shown)
VH: EVQLLESGGGLVQPGGSLRLSCAASGFTFSDYDMSWVRQAPGKGLEWVSMIYSGSSSKYYADSVKGRFTISRDNSKNTLYLQMNSLRAEDTAVYYCAKAPLPFYFRPKSYYYAMDVWGQGTLVTVSS
VL: B1 VL with P11S, A33N, D52N, D94S
B4: C25 (antibody, human IgG4 S228P, lambda, V domains shown)
VH: EVQLLESGGGLVQPGGSLRLSCAASGFTFSNYAMSWVRQAPGKGLEWVSVISHGGGSIYYADSVKGRLTISRDNSKNTLYLQMNSLRAEDTAVYYCARDPTKGYAPTFDYWGQGTLVTVSS
VL: B1 VL with P11S, S31N, A33Y, T35S, H54K, S91A, D94A, A98G
notes: Made in ExpiHEK293F cells, protein A purified. huIgG4 is the isotype control and anti-huIgG4 the detection reagent; the isotype is not otherwise stated; also called anti-CEACAM1 antibody C25
B5: C17 (antibody, human IgG4 S228P, lambda, V domains shown)
VH: EVQLLESGGGLVQPGGSLRLSCAASGFTFSDYSMSWVRQAPGKGLEWVSVIYPDDGNTYYADSVKGRFTISRDNSKNTLYLQMNSLRAEDTAVYYCARGSIWWLSLIPSSYNAMDVWGQGTLVAVSS
VL: B1 VL with P11S, S31N, T35N, D52N, S91A, D94A, A98G
B6: C15 (antibody, human IgG4 S228P, lambda, V domains shown)
VH: EVQLLESGGGLVQPGGSLRLSCAASGFTFSSYSMSWVRQAPGKGLEWVSSISPNGGNKYYADSVKGRFTISRDNSKNTLYLQMNSLGAEDTAVYYCAKDPYNIYQPLFDYWGQGTLVTVSS
VL: QSVLTQPLSASGTPGQRVTISCSGSSSNIGNNYVNWYQQLPGTAPKLLIYANSNRPSGVPDRFSGSKSGTSASLAISGLRSEEEADYYCGTWDASLSAYVFGGGTKLTVLG
B7: C19 (antibody, human IgG4 S228P, lambda, V domains shown)
VH: EVQLLESGGGLVQPGGSLRLSCAASGFTFSGYAMSWVRQAPGKGLEWVSGIYHDGGSTYYADSVKGRFTISRDNSKNTLYLQMNSLRAEDTAVYYCARVTVLCTTYGCSSYDGMDVWGQGTLVTVSS
VL: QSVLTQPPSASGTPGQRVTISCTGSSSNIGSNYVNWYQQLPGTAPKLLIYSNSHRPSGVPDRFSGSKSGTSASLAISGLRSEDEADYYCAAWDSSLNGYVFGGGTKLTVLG

target: T3, BSA (bovine, UniProt P02769); experiment: ELISA on coated antigen (0.25 µg/ml), HRP anti-human IgG Fc, OD450
T3 construct: blank antigen; also called BSA protein; bovine serum albumin
T3 sequence (P02769 25-607 limits assumed): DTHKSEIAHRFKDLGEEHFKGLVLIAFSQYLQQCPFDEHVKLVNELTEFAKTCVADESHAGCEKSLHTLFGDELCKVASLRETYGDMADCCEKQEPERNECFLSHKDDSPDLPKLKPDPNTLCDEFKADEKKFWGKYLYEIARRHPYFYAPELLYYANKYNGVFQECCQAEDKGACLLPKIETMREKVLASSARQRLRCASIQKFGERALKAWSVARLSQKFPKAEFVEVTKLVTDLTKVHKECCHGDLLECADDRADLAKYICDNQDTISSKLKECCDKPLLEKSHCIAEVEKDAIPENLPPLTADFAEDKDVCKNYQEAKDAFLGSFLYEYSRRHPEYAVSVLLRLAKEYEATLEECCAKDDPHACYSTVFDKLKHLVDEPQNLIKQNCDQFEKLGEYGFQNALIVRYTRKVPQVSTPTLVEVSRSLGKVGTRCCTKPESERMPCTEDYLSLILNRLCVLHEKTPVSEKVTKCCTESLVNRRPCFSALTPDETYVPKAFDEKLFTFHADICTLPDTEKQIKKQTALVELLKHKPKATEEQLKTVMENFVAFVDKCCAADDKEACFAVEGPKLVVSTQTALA
Excerpt: (§1) All of the recombinant human CEACAM-1/CD66a protein (R&D systems; Cat No. 2244-CM, HCCM1), recombinant human CEACAM-5/CD66e protein (R&D systems; Cat. No. 4128-CM, HCCM5), recombinant human CEACAM-6/CD66c protein (R&D systems; Cat. No. 3934-CM, HCCM6), recombinant human CEACAM-3/CD66d protein (Sino Biological; Cat. No. 11933-H08H, HCCM3), human B7-H5/Gi24/VISTA protein (Sino Biological; Cat. No. 13482-H08H, HVISTA), recombinant human CEACAM-1/CD66a protein Bulk (R&D systems; Cat. No. 2244-CM, HCCM1 (bulk)), recombinant human CEACAM1-N domain-Kappa protein (Mogam, in-house production, HCCM1-N domain-kappa), and BSA protein (2.5 μg each) were dissolved in 10 ml of PBS, respectively, and dispensed into a 96-well plate at 100 μl/well, which was incubated at 4° C. overnight. Thereafter, each well was treated with 300 μl of 1% (v/v) bovine serum albumin, and incubated at 37° C. for 1 hour.
(§2) The diluted antibodies were dispensed into each well coated with each protein at 100 μl/well, and incubated at 37° C. for 1 hour. Then, each well was washed 3 times with a washing buffer prepared by diluting 10 μl of Tween 20 (Sigma-Aldrich; Cat. No. P9146) in 990 μl of PBS. Thereafter, 2 μl of HRP-conjugated human anti-IgG-Fc antibody (anti-human IgG Fc, Sigma Cat. No. A0170) was diluted in 10 ml of PBS, added to the wells at 100 μl/well, and incubated for 1 hour.
(§3) After completion of the reaction, the wells were washed three times with the washing buffer, and 100 μl of TMB solution was added to each well to induce color development. Then, 100 μl of 2 M H₂SO₄ was added to each well to stop the reaction, and the absorbance was measured at a wavelength of 450 nm.

Question: Does B1 bind?
Answer: no binding (tested: 3 µg/ml (single concentration))

Question: Does B2 bind?
Answer: no binding (tested: 3 µg/ml (single concentration))

Question: Does B3 bind?
Answer: no binding (tested: 3 µg/ml (single concentration))

Question: Does B4 bind?
Answer: no binding (tested: 3 µg/ml (single concentration))

Question: Does B5 bind?
Answer: no binding (tested: 3 µg/ml (single concentration))

Question: Does B6 bind?
Answer: no binding (tested: 3 µg/ml (single concentration))

Question: Does B7 bind?
Answer: no binding (tested: 3 µg/ml (single concentration))

target: T4, HVISTA; experiment: as above
T4 construct: unrelated control antigen; also called human B7-H5/Gi24/VISTA protein (Sino Biological; Cat. No. 13482-H08H); not shown: the vendor's polyhistidine tag
T4 sequence (chain, as listed by the source limits assumed): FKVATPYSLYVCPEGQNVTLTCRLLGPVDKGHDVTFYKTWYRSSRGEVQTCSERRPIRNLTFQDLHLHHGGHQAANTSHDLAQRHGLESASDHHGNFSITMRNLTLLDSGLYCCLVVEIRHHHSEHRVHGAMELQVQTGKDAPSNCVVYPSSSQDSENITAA
Excerpt: as §1, §2, §3

Question: Does B1 bind?
Answer: no binding (tested: 3 µg/ml (single concentration))

Question: Does B2 bind?
Answer: no binding (tested: 3 µg/ml (single concentration))

Question: Does B3 bind?
Answer: no binding (tested: 3 µg/ml (single concentration))

Question: Does B4 bind?
Answer: no binding (tested: 3 µg/ml (single concentration))

Question: Does B5 bind?
Answer: no binding (tested: 3 µg/ml (single concentration))

Question: Does B6 bind?
Answer: no binding (tested: 3 µg/ml (single concentration))

Question: Does B7 bind?
Answer: no binding (tested: 3 µg/ml (single concentration))

target: T1, recombinant human CEACAM-6/CD66c …; experiment: ELISA on coated antigen (0.25 µg/ml), HRP anti-human IgG Fab, OD450
Excerpt: (§4) All of the recombinant human CEACAM-1/CD66a protein (R&D systems; Cat. No. 2244-CM, HCCM1), recombinant human CEACAM-5/CD66e protein (R&D systems; Cat. No. 4128-CM, HCCM5), recombinant human CEACAM-6/CD66c protein (R&D systems; Cat. No. 3934-CM, HCCM6), recombinant human CEACAM-3/CD66d protein (Sino Biological; Cat. No. 11933-H08H, HCCM3), recombinant mouse PD-1 Fc chimeric protein (R&D systems; Cat. No. 1021-PD, mPD-1-Fc), recombinant CEACAM1-Fc (IgG4) protein (Mogam, in-house production, HCCM1-Fc), recombinant human CEACAM-1/CD66a protein Bulk (R&D systems; Cat. No. 2244-CM, HCCM1 (bulk)) and mouse CEACAM1/CD66a protein (Sino Biological; Cat. No. 50571-M08H, mouse CCM1) (2.5 μg each) were dissolved in 10 ml of PBS, respectively and dispensed into a 96-well plate (Nunc; Cat. No. 467679) at 100 μl/well, which was incubated overnight at 4° C. Thereafter, each well was treated with 300 μl of 1% (v/v) bovine serum albumin, which was incubated at 37° C. for 1 hour.
(§5) The diluted antibodies were dispensed into each well coated with each protein at 100 μl/well, which was incubated at 37° C. for 1 hour. Then, each well was washed 3 times with a washing buffer prepared by diluting 10 μl of Tween 20 (Sigma-Aldrich; Cat. No. P9146) in 990 μl of PBS. Thereafter, 2 μl of HRP-conjugated human anti-IgG-Fab antibody (anti-human IgG Fab; Sigma; Cat. No. A0293) was diluted in 10 ml of PBS, added to the wells at 100 μl/well, and incubated for 1 hour.
as §3

Question: Does B1 bind?
Answer: no binding (tested: 3 µg/ml (single concentration))

Question: Does B2 bind?
Answer: no binding (tested: 3 µg/ml (single concentration))

Question: Does B3 bind?
Answer: no binding (tested: 3 µg/ml (single concentration))

Question: Does B4 bind?
Answer: no binding (tested: 3 µg/ml (single concentration))

Question: Does B5 bind?
Answer: no binding (tested: 3 µg/ml (single concentration))

Question: Does B6 bind?
Answer: no binding (tested: 3 µg/ml (single concentration))

Question: Does B7 bind?
Answer: no binding (tested: 3 µg/ml (single concentration))

Target: T2, mCCM1
Experiment: as above
Excerpt: as §4, §5, §3

Question: Does B1 bind?
Answer: no binding (tested: 3 µg/ml (single concentration))

Question: Does B2 bind?
Answer: no binding (tested: 3 µg/ml (single concentration))

Question: Does B3 bind?
Answer: no binding (tested: 3 µg/ml (single concentration))

Question: Does B4 bind?
Answer: no binding (tested: 3 µg/ml (single concentration))

Question: Does B5 bind?
Answer: no binding (tested: 3 µg/ml (single concentration))

Question: Does B6 bind?
Answer: no binding (tested: 3 µg/ml (single concentration))

Question: Does B7 bind?
Answer: no binding (tested: 3 µg/ml (single concentration))
